The values below come from article PMC10028186.

This data set relates to Strep-msIHF (mycobacterial integration host factor) (Mycobacterium smegmatis mc2 155). Briefly: BLI. Conditions: BLI: PBS with 50 mM Tris-HCl pH 7.5, 150 mM NaCl, 0.1 mg/ml BSA, 0.05% Tween-20, 30 C. EMSA: 50 mM Tris-HCl pH 8, 150 mM NaCl, 10 mM Mg acetate, 0.02% ….

Usually Kd stands for the concentration at which binding is half-saturated. Higher therefore signals a looser complex. The substance attB fragment had a Kd of 250 nM.

As to oriC fragment, the Kd was determined as 270 nM.
